Data taken from patent US7700573.

Target: KOC1 (RNA-immunoprecipitation from NSCLC cells) (Homo sapiens) (UniProt O00425)
Assay: pulldown

KOC1 (RNA-immunoprecipitation from NSCLC cells) (Homo sapiens), sequence (O00425 whole entry): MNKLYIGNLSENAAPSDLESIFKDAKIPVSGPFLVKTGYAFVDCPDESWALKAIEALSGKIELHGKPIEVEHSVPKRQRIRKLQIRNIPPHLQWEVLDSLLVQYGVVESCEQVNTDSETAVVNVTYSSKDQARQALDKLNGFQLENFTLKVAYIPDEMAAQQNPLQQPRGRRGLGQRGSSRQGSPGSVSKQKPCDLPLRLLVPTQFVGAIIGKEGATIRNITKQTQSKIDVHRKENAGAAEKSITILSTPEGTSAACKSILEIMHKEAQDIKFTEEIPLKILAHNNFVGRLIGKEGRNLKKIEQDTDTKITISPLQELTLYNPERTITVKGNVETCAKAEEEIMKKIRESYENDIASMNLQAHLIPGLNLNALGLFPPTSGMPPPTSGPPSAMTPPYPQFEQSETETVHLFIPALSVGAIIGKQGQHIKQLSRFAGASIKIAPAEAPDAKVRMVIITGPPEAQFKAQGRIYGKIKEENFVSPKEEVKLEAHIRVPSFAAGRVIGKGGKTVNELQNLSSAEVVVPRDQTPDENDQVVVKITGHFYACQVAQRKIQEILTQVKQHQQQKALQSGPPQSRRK

| Substance | binding signal (fold IP/input, sum of five cell lines) (RNA-IP microarray) | further results |
| --- | --- | --- |
| ACTB mRNA (BC053988) | – | binding signal (fold IP/input, sum of five cell lines) (negative control): 0 |
| CCT2 mRNA (AF026166) | – | binding signal (fold IP/input, sum of five cell lines) (RNA-IP microarray, association in cell extract): 32.3 |
| GL mRNA (AJ420489) | 16 | – |
| PKP4 mRNA (AI681111) | 12.6 | – |
| PSMB7 mRNA (BM837906) | 16.5 | – |
| SBP2 mRNA (AF380995) | 24 | – |
| SLC25A3 mRNA (NM_002635) | 21.7 | – |
| WINS1 mRNA (AA741459) | 10.9 | – |
